Drawing on paper PMC6944315, this text covers stoichiometry N for three substances.

The target of assay [1] is Caldivirga maquilingensis type III sulfide:quinone oxidoreductase, wild type, His-tagged (Caldivirga maquilingensis IC-167). Description: SEC.
Assay [2] deals with CmSQR truncated 1 (T1), lacking the complete last C-terminal helix (Caldivirga maquilingensis IC-167). Kind of assay: native gel or EMSA.
For assay [3] the target is unchanged. Description: SEC.
For assay [4], the target named is CmSQR truncated 2 (T2), lacking the last two C-terminal helices, His-tagged (Caldivirga maquilingensis IC-167). Description: native gel or EMSA.
The target is the same in assay [5]. Kind of assay: SEC.
The target is the same in assay [6]. Description: cross-linking.

“And” between values parts separate entries of the source, which are not always exact repeats. Equal values may be shown once.

As for “Caldivirga maquilingensis type III sulfide:quinone oxidoreductase, wild type, His-tagged (enzyme)”, the stoichiometry N in assay [1] stood at 2.
With “CmSQR truncated 1 (T1), lacking the complete last C-terminal helix (domain or fragment)”, the stoichiometry N in assay [2] and in assay [3] was 2 throughout.
For the substance “CmSQR truncated 2 (T2), lacking the last two C-terminal helices, His-tagged (domain or fragment)”, the stoichiometry N was 2 and 3 in assay [4]; 2 in assay [5]; 2 and 3 in assay [6].
